Biological target: PDI C56A-FLAG (human) (UniProt P07237)
Experiment: co-IP

UniProt P07237, sequence (P07237 18-508 C56A): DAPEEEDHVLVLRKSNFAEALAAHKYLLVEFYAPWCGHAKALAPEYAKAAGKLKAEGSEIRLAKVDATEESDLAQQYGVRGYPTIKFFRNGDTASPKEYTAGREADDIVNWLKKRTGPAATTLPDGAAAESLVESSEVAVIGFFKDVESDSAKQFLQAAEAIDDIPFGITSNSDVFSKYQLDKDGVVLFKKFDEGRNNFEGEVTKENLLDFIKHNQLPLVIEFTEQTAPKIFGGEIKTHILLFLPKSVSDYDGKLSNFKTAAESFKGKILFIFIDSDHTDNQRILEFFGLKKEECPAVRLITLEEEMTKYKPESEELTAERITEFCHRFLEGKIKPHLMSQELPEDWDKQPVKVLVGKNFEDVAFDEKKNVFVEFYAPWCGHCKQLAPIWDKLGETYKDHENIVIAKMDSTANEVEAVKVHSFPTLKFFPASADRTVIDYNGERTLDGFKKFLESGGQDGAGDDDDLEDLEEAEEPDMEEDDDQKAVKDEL

- stoichiometry N (proinsulin per PDI): 1
Substance: Myc-epitope-tagged human C(A7)Y Akita mutant proinsulin (natural protein)

— publication PMC4591687
